From the Immune Epitope Database (IEDB)

Key:
HLA-B*58:01 = assay: IEDB peptide-MHC binding, purified MHC/direct/fluorescence; filed as Kd, often an IC50 or EC50 that approximates it; ≥ and ≤ were set here for values at or beyond the usual limits of such assays
HLA-A*11:01 [1] = assay: as above
HLA-A*02:01 [2] = assay: as above
HLA-B*44:02 = assay: as above
HLA-B*18:01 = assay: as above; conditions: source organism: Influenza A virus (A/goose/Guangxi/1097/2004(H5N1))
HLA-B*40:01 = assay: as above
HLA-B*08:02 = assay: as above; conditions: source organism: Influenza A virus(A/swine/Shandong/fNY/2003(H9N2))
HLA-B*15:01 [3] = assay: as above
HLA-A*01:01 = assay: as above
HLA-B*08:01 = assay: as above
HLA-A*24:03 = assay: as above; conditions: source organism: Influenza A virus (A/goose/Guangxi/1097/2004(H5N1))
HLA-A*03:01 [4] = assay: as above
HLA-B*07:02 [5] = assay: as above
HLA-A*69:01 = assay: as above
HLA-A*26:01 = assay: as above; conditions: source organism: Influenza A virus(A/swine/Shandong/fNY/2003(H9N2))
HLA-B*46:01 = assay: as above
HLA-B*27:05 = assay: as above
HLA-A*24:02 = assay: as above
HLA-A*31:01 [6] = assay: IEDB peptide-MHC binding, purified MHC/competitive/fluorescence; filed as Kd, often an IC50 or EC50 that approximates it; ≥ and ≤ were set here for values at or beyond the usual limits of such assays; conditions: source organism: Influenza A virus H3N2
HLA-B*15:01 [7] = assay: as above
HLA-B*35:01 = assay: as above
HLA-B*07:02 [8] = assay: as above
HLA-A*11:01 [9] = assay: IEDB peptide-MHC binding, purified MHC/competitive/fluorescence; ≥ and ≤ were set here for values at or beyond the usual limits of such assays; conditions: source organism: Zaire ebolavirus
HLA-A*02:01 [10] = assay: as above; conditions: source organism: Zaire ebolavirus
HLA-A*03:01 [11] = assay: as above; conditions: source organism: Zaire ebolavirus
HLA-A*31:01 [12] = assay: IEDB peptide-MHC binding, purified MHC/direct/fluorescence; filed as Kd, often an IC50 or EC50 that approximates it; ≥ and ≤ were set here for values at or beyond the usual limits of such assays
HLA-B*51:01 = assay: IEDB peptide-MHC binding, purified MHC/competitive/fluorescence; filed as Kd, often an IC50 or EC50 that approximates it; ≥ and ≤ were set here for values at or beyond the usual limits of such assays
HLA-B*48:01 = assay: IEDB peptide-MHC binding, purified MHC/direct/fluorescence; filed as Kd, often an IC50 or EC50 that approximates it; ≥ and ≤ were set here for values at or beyond the usual limits of such assays; conditions: source organism: Mammarenavirus lassaense
HLA-B*57:01 = assay: as above; conditions: source organism: Mammarenavirus lassaense
HLA-B*54:01 = assay: IEDB peptide-MHC binding, purified MHC/competitive/radioactivity; filed as Kd, often an IC50 or EC50 that approximates it; ≥ and ≤ were set here for values at or beyond the usual limits of such assays; conditions: source organism: Lassa virus GA391
HLA-B*07:02 [13] = assay: as above; conditions: source organism: Lassa virus GA391
HLA-B*53:01 = assay: as above; conditions: source organism: Lassa virus GA391
[14] = source organism: Influenza A virus (A/goose/Guangxi/1097/2004(H5N1))
[15] = source organism: Bacillus cereus G9241
[16] = source organism: Influenza A virus (A/swine/Bakum/5/95(H1N1))
[17] = source organism: Shigella flexneri 5 str. 8401
[18] = source organism: Escherichia coli O157:H7 str. Sakai
[19] = source organism: Mammarenavirus lassaense

KYTSGRQEK gave a Kd (HLA-B*58:01; [14]) of no less than 20 µM, a Kd (HLA-A*11:01 [1]; [14]) of no less than 20 µM and a Kd (HLA-A*02:01 [2]; [14]) of no less than 20 µM. For the same sequence, the Kd (HLA-B*44:02; [14]) was no less than 20 µM, the Kd (HLA-B*18:01) was no less than 20 µM and the Kd (HLA-B*40:01; [14]) was no less than 20 µM. It also gave a Kd (HLA-B*08:02) of no less than 20 µM, a Kd (HLA-B*15:01 [3]; [14]) of no less than 20 µM and a Kd (HLA-A*01:01; [14]) of no less than 20 µM. For the same sequence, the Kd (HLA-B*08:01; [14]) was no less than 20 µM, the Kd (HLA-A*24:03) was no less than 20 µM and the Kd (HLA-A*03:01 [4]; [14]) was no less than 20 µM. It also gave a Kd (HLA-B*07:02 [5]; [14]) of no less than 20 µM, a Kd (HLA-A*69:01; [14]) of no less than 20 µM and a Kd (HLA-A*26:01) of no less than 20 µM. For the same sequence, the Kd (HLA-B*46:01; [14]) was no less than 20 µM, the Kd (HLA-B*27:05; [14]) was no less than 20 µM and the Kd (HLA-A*24:02; [14]) was no less than 20 µM. The Kd (HLA-A*31:01 [6]) was 0.268 µM.
For LFAGSIAAY, the Kd (HLA-B*15:01 [7]; [15]) was 0.19 µM and the Kd (HLA-B*35:01; [15]) was 0.0522 µM.
Sequence LPFSASIVF has a Kd (HLA-B*07:02 [8]; source organism: Yersinia pestis CO92) of 0.0888 µM.
MMVIFRLMR showed an IC50 (HLA-A*11:01 [9]) of 0.0455 µM, an IC50 (HLA-A*02:01 [10]) of no less than 5440 µM and an IC50 (HLA-A*03:01 [11]) of 0.183 µM.
Sequence RGINDRNFW has a Kd (HLA-B*58:01; source organism: Influenza A virus (A/swine/Bakum/1832/2000(H1N2))) of 0.0415 µM, a Kd (HLA-A*11:01 [1]; [16]) of no less than 20 µM and a Kd (HLA-A*02:01 [2]; [16]) of no less than 20 µM. For the same sequence, the Kd (HLA-B*40:01; [16]) was no less than 20 µM, the Kd (HLA-B*15:01 [3]; [16]) was no less than 20 µM and the Kd (HLA-A*01:01; [16]) was no less than 20 µM. For the same sequence, the Kd (HLA-B*08:01; [16]) was no less than 20 µM, the Kd (HLA-A*03:01 [4]; [16]) was no less than 20 µM and the Kd (HLA-B*07:02 [5]; [16]) was no less than 20 µM. It also gave a Kd (HLA-A*69:01; [16]) of no less than 20 µM, a Kd (HLA-B*46:01; [16]) of no less than 20 µM and a Kd (HLA-A*31:01 [12]; [16]) of no less than 20 µM. It also gave a Kd (HLA-B*27:05; [16]) of no less than 20 µM and a Kd (HLA-A*24:02; [16]) of no less than 20 µM.
RLLNLSGVN was tested, and the IC50 (HLA-A*02:01 [10]) was 21.9 µM and the IC50 (HLA-A*03:01 [11]) was 43.2 µM.
Work on TPAQLSMLL yielded a Kd (HLA-B*51:01; [17]) of no less than 20 µM and a Kd (HLA-B*07:02 [8]; [17]) of 0.215 µM.
In the case of TPTHLSLAI, the Kd (HLA-B*51:01; [18]) is reported as 2.92 µM, the Kd (HLA-B*15:01 [7]; [18]) is reported as no less than 20 µM and the Kd (HLA-B*35:01; [18]) is reported as 0.0168 µM.
Work on VPHVIEEVM yielded a Kd (HLA-B*58:01; [19]) of no less than 20 µM, a Kd (HLA-A*11:01 [1]; [19]) of no less than 20 µM and a Kd (HLA-A*02:01 [2]; [19]) of no less than 20 µM. For the same sequence, the Kd (HLA-B*48:01) was no less than 20 µM, the Kd (HLA-B*44:02; [19]) was no less than 20 µM and the Kd (HLA-B*40:01; [19]) was no less than 20 µM. For the same sequence, the Kd (HLA-B*15:01 [3]; [19]) was no less than 20 µM, the Kd (HLA-A*01:01; [19]) was no less than 20 µM and the Kd (HLA-B*08:01; [19]) was 3.8 µM. The Kd (HLA-A*03:01 [4]; [19]) was no less than 20 µM, the Kd (HLA-B*57:01) was no less than 20 µM and the Kd (HLA-A*69:01; [19]) was no less than 20 µM. The Kd (HLA-B*46:01; [19]) was no less than 20 µM, the Kd (HLA-A*31:01 [12]; [19]) was no less than 20 µM and the Kd (HLA-B*27:05; [19]) was no less than 20 µM. For the same sequence, the Kd (HLA-B*54:01) was 12.5 µM, the Kd (HLA-B*07:02 [13]) was 0.324 µM and the Kd (HLA-B*53:01) was 1.09 µM. For the same sequence, the Kd (HLA-B*51:01; [19]) was no less than 20 µM and the Kd (HLA-B*35:01; [19]) was 0.0002 µM.
With YVKQNTLKL the Kd (HLA-B*07:02 [8]; source organism: Influenza A virus) was 0.0718 µM.
